# Results taken from the supplement of paper PMC10126150.
# ± gives the standard deviation of the averaged measurements.
# Tested on: ATP
# Assay: switch fluorescence ratio, 500 uM ATP over buffer (Cy3 cluster intensity, sum of 5 cycles each) (fold (ratio)); higher = stronger signal-on switching upon ATP binding; sequences stand for … in TCGTCGGCAGCGTCAGATGTGTATAAGAGACAGTTTTTTTTTTTTTTTTTTTTTTTTT…TC
# Conditions: aptamer strand: ATP DNA aptamer (quencher-CACCTGGGGGAGTATTGCGGAGGAAGG + anchor), 100 nM annealed; ATP concentration: 500 uM
# Summary of the method: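 Clusters carrying Cy3-labelled switching strands on a modified Illumina MiSeq flow-cell were annealed to 100 nM quencher-labelled ATP aptamer and imaged in selection buffer. They were imaged again after 15 min with 500 uM ATP at 22 °C, over five buffer/ATP cycles with NaOH stripping and re-annealing in between. For each cluster, the fluorescence ratio is the summed Cy3 intensity of the target cycles divided by that of the buffer cycles, averaged per switch-domain sequence. Clusters outside 100-1000 RFU were left out.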
# 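Also: ATP exposure 15 min at 22 °C before imaging.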
row,Sequence,switch fluorescence ratio
1,AAATGTCAAA,0.986 ± 0.042
2,TTGGGACTTG,0.999 ± 0.054
3,GTTTGGTATG,0.988 ± 0.017
4,ATAAGTCCGG,1.03 ± 0.042
5,GTTGGAGGCG,0.969 ± 0.049
6,AGAGCAGGTT,1.02 ± 0.014
7,TCAGGGAGGT,0.989 ± 0.051
8,GTTGCTATGA,1.02 ± 0.017
9,GAAATAGATC,0.953 ± 0.07
10,GAGGACTGTA,1.09 ± 0.025
11,GCTTAGTATA,1.01 ± 0.019
12,AGGTGAAGCC,1.01 ± 0.038
13,GACCCCGATT,1.05 ± 0.022
14,TATTTTTAGC,1 ± 0.03
15,ACGTATTTGT,1.11 ± 0.013
16,TATGACAGGA,0.995 ± 0.011
17,CGAGAGGGAG,1.004 ± 0.0015
18,CCTGGAAATT,1.02 ± 0.023
19,TGGTGGCGG,0.952 ± 0.037
20,TCGATGATCG,0.963 ± 0.046
21,TGACAAGGGG,1.05 ± 0.044
22,CTTTCTTGCT,0.975 ± 0.021
23,GTCGAAGGGT,1 ± 0.048

row,Sequence,switch fluorescence ratio
1,TCGTCGCGTA,0.978 ± 0.14
2,GGGGGGCCGG,0.996 ± 0.033
3,CGTAATGGGA,1.04 ± 0.025
4,GGGATCTGCG,0.95 ± 0.017
5,CGTGGTCGTC,0.991 ± 0.03
6,GGGATATAGG,0.9937 ± 0.0021
7,GGACCTGCTG,0.969 ± 0.0033
8,AGGGCGTTTG,0.998 ± 0.018
9,TTTGGCTAGT,1.01 ± 0.019
10,AAGATGTTTT,1.01 ± 0.04
11,GGAATGTGCA,0.987 ± 0.023
12,TGTTGATAGC,0.992 ± 0.037
13,GGCGCACTAT,1.22 ± 0.051
14,TTTTGCTTGG,1.01 ± 0.015
15,TCGTACAGTA,1.02 ± 0.029
16,GTTTATAAAG,0.9899 ± 0.0023
17,ATCATCTTGT,1.042 ± 0.0015
18,ATGGCCTCGG,1.02 ± 0.025
19,GAAGGCGGGG,0.9933 ± 0.0054
20,AGCGTCGCAG,0.9715 ± 0.0087
21,TTGGGGTACG,1.01 ± 0.021
22,CGCATCTGGG,1.09 ± 0.017
23,AAGAGCCAAA,0.9735 ± 0.0097

row,Sequence,switch fluorescence ratio
1,TTTGCATCTC,1.03 ± 0.044
2,GTGGATTGCG,0.9975 ± 0.0075
3,CGTTAAATGT,0.998 ± 0.022
4,AATTAGTTGT,0.9918 ± 0.0084
5,GTGTATGGGG,0.968 ± 0.063
6,CAGCGTGGGG,1.022 ± 0.0092
7,GGTCTGATTG,1.01 ± 0.065
8,TTGGTTGACG,0.963 ± 0.041
9,CGCAACTATG,1.56 ± 0.026
10,GCAATGAGGG,1.14 ± 0.034
11,GAGGAGGGTT,0.992 ± 0.051
12,AATGATGCCG,0.9864 ± 0.008
13,CGGGTACGTG,1.02 ± 0.018
14,GAAGAGGGTT,0.972 ± 0.033
15,TCATGTTTCG,1 ± 0.031
16,CTTTAAGTTG,1.03 ± 0.029
17,AAAAAGGGTT,1 ± 0.025
18,CGTCCCCGAG,1.054 ± 0.0087
19,ATTTTAGGTC,0.989 ± 0.025
20,TTTCTAATGC,1.03 ± 0.014
21,CCAACTTTTT,0.962 ± 0.014
22,GCAATTTGAT,1.01 ± 0.02
23,TAGGTGACGG,0.991 ± 0.021

row,Sequence,switch fluorescence ratio
1,CACTTCTGGC,1.03 ± 0.011
2,GACTATGGGA,1.42 ± 0.55
3,TAATGGGGAT,0.989 ± 0.022
4,TATAATACTT,1.026 ± 0.0038
5,AGAAAAATGG,0.998 ± 0.02
6,ACAAGGGCGG,1.01 ± 0.015
7,GCAGTCCGAG,1.07 ± 0.043
8,TGTTTGGAAG,1.05 ± 0.056
9,GACGTTTACA,1.17 ± 0.016
10,GTTTGGGTGA,1 ± 0.026
11,GGGAAACTGA,1.04 ± 0.0027
12,TTGTATATAT,1.49 ± 0.81
13,GCGAGTCTCG,1.03 ± 0.044
14,GGGGGGTTCG,0.978 ± 0.021
15,TTAAGGTTTT,1 ± 0.03
16,TATGTGAACA,0.991 ± 0.025
17,GTCCGGGGGG,1.26 ± 0.015
18,AGACGAGGTA,1.03 ± 0.05
19,TTGATGAAGT,1.01 ± 0.031
20,GCTAGGGGGA,1.03 ± 0.05
21,TGAGTAGCTC,0.9715 ± 0.0037
22,AAGTGGTAAG,0.996 ± 0.034
23,GTTTTTTTGA,1.0032 ± 0.00018

row,Sequence,switch fluorescence ratio
1,CGGTATCTAT,0.96436 ± 0.00057
2,CCAAAATTG,1.02 ± 0.018
3,TAGTATAGGC,1.14 ± 0.17
4,GGGGGGTGAA,1.02 ± 0.012
5,TTCGAGGAAT,1.08 ± 0.099
6,ATGTGATTGG,1.01 ± 0.027
7,TTTAAATGGG,1 ± 0.021
8,CTAAATTTC,1.02 ± 0.08
9,ATCTAAGGTT,1.01 ± 0.025
10,CATTATCTGG,1.01 ± 0.072
11,TCGGTTGGTG,0.969 ± 0.042
12,ATGTCGATGG,0.9908 ± 0.0065
13,GACTGGGCGG,1 ± 0.021
14,AGGAGGAGTT,1.01 ± 0.053
15,CATATAGAGG,1.01 ± 0.054
16,TTTTATTGTA,0.999 ± 0.032
17,TGAGGGCTTT,1.013 ± 0.0023
18,CTGAGTTGTT,0.989 ± 0.08
19,TAAATCCAGG,1.24 ± 0.028
20,TTACTTATTA,1.07 ± 0.018
21,GGGCGTGTTG,1.027 ± 0.01
22,TAAAAAATGG,1 ± 0.044
23,TAAGGTTCTT,1.01 ± 0.011

row,Sequence,switch fluorescence ratio
1,ACGGGGGTTT,0.997 ± 0.015
2,TTTTCGGGGC,0.981 ± 0.035
3,TTTAGGGACG,0.955 ± 0.14
4,TTACAGTTCG,1.013 ± 0.0082
5,CCTTTGAGAT,1.03 ± 0.022
6,TAGAATTGTG,1.21 ± 0.33
7,GGATTATCTC,1.015 ± 0.0044
8,GTTATTTTCG,0.987 ± 0.028
9,CCGGGGGTCG,1.06 ± 0.074
10,ATGATTCTGT,1 ± 0.021
11,TTTGTGGTTT,0.985 ± 0.043
12,TTGGGTTAGT,1.01 ± 0.019
13,CCATTGATGT,1.02 ± 0.023
14,GGGATTAGCG,0.957 ± 0.037
15,CTGTTATCGC,1.01 ± 0.042
16,ATGTGGGGGC,0.994 ± 0.03
17,GCAATTCTAC,3.085 ± 0.025
18,GAAGAAGGTT,0.99516 ± 0.00083
19,TTATAGATAT,0.994 ± 0.015
20,CTATACTGAG,1.05 ± 0.045
21,AGTAGGGCAG,0.9976 ± 0.006
22,CTTTTTTTTA,0.985 ± 0.021
23,CTTGGATTCC,1 ± 0.021

row,Sequence,switch fluorescence ratio
1,GGGAAGGGTT,0.998 ± 0.029
2,ACATGGGGGC,1 ± 0.045
3,GCAGGTGACT,1.33 ± 0.077
4,CACCTCTTAC,1.271 ± 0.0029
5,TTTGTTAGCG,1.01 ± 0.053
6,TTAAAACTTT,1.02 ± 0.025
7,TGGTGGATCT,0.9904 ± 0.0063
8,TAGCCGGCGT,1.01 ± 0.013
9,CGGGATGGGG,1 ± 0.041
10,GATCTTTCCG,1.08 ± 0.059
11,TGGGTGAAAG,1.02 ± 0.02
12,AGGGGCAAAG,1.01 ± 0.013
13,TGATCGGCTA,1.01 ± 0.049
14,GGGGGAGTCT,1.11 ± 0.087
15,TGTGTTCTGG,0.986 ± 0.011
16,GTTCCGGGGT,1.05 ± 0.05
17,ATTCGTGGGG,0.97 ± 0.032
18,ATTGTGAGGT,0.992 ± 0.039
19,GCTTGAGTTC,1.03 ± 0.025
